According to PMC8698692, “Generation of a Novel High-Affinity Antibody Binding to PCSK9 Catalytic Domain with Slow Dissociation Rate by CDR-Grafting, Alanine Scanning and Saturated Site-Directed Mutagenesis for Favorably Treating Hypercholesterolemia” (Biomedicines, 2021):
Where a chain is given by its changes, count along the chain named. Each block holds one binder with its values, some of them ahead of it.

Assays:
[1] = target: T1, human proprotein convertase subtilisin/kexin type 9 (hPCSK9), recombinant (Homo sapiens, UniProt Q8NBP7, biotinylated with a biotinylation kit for the BLI assay only (sites not given)); assay: BLI; ForteBio Octet QKe; biotinylated hPCSK9 (50 μg/mL) immobilised on streptavidin biosensors; 2-fold dilutions of antibody (scFvs 6000-93.75 nM, mAbs 800-12.5 nM), association 300 s or longer, dissociation 600 s in SD buffer (PBS, 0.02% Tween 20, 0.1% BSA, pH 7.4); global fit; settings: both partners purified
T1 construct: signal peptide in the construct; source: CHO-3E7, transiently transfected (pTT5-hPCSK9), supernatant purified (Ni-IMAC, Superdex 200 SEC)

[2] = target: T1, human proprotein convertase …; assay: ELISA; non-competitive ELISA; hPCSK9 coated at 1 μg/mL and 2 μg/mL; purified m5E12 at 10^-1 to 10^5 ng/mL; HRP goat anti-mouse IgG; Kaff = (n − 1)/2(n[Ab']t − [Ab]t); settings: both partners purified

T1 sequence (Q8NBP7 31-692): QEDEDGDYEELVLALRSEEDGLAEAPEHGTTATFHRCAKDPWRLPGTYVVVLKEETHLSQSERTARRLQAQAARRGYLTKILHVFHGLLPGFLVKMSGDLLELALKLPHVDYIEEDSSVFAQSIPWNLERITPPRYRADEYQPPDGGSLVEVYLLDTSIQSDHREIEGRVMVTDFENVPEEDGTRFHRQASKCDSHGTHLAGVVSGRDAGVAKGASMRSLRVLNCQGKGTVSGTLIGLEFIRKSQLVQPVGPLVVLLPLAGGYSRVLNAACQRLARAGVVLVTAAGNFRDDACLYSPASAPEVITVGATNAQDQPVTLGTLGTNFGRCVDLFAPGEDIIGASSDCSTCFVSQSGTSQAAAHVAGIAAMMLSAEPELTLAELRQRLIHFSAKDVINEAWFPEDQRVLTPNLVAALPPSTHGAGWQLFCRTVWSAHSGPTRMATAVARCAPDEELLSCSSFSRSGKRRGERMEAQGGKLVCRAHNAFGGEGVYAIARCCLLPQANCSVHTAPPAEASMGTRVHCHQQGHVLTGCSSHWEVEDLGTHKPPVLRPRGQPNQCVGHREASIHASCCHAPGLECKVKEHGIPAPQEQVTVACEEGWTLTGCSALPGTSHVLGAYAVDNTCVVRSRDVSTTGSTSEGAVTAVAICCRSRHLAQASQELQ

koff [1]: 0.00744 s⁻¹
B3: m5E12scFv, murine 5E12 single-chain variable fragment (scFv, V domains shown)
VH: EVQLEQSGAELVKPGASVKLSCKASGYTFTSYWMHWVKQRPGQGLEWIGEINPSNGRTDHSEKFKNKATLTVDKSSTTAYLQLSSLTSEDSSVYYCARFHYDYDYFDYWGQGTTLTVSS
VL: DIVITQSTKFMSTSVGDRVSVTCKASRNVGNSVGWYQQKPGQSPKILIYSASYRYSGVHDRFTGSGSGTDFTLTISNVQSEDLAEYFCQQYNRYPLTFGEGTKLELK
notes: VH of m5E12; (Gly4Ser)3 linker between VH and VL; VL of m5E12; Cloned in pET-27b with the pelB signal peptide; isolated from the periplasm; also called murine 5E12 scFv; source: E. coli BL21 (DE3), periplasm, purified (Ni-NTA, Superdex 75 SEC)

Ka [2]: 1.04e+09 M⁻¹
B4: m5E12, murine monoclonal antibody against hPCSK9 (IgG1, kappa) (antibody, V domains shown)
VH: B3 VH
VL: B3 VL
notes: VH of m5E12; mouse IgG1 heavy-chain constant region (isotype found with a kit; BALB/c mice); VL of m5E12; mouse kappa light-chain constant region (isotype found with a kit); Mouse IgG1 kappa; also called mAb 5E12; source: hybridoma 5E12 supernatant (screening ELISA); mouse ascites, purified (protein A)

Second part, the binder before the results:

B1: h5E12scFv, humanized 5E12 scFv by CDR grafting without back mutation (scFv, V domains shown)
VH: QVQLVQSGAEVKKPGASVKVSCKASGYTFTSYWMHWVRQAPGQGLEWMGEINPSNGRTDHSEKFKNRVTMTRDTSTSTVYMELSSLRSEDTAVYYCARFHYDYDYFDYWGQGTLVTVSS
VL: DIVMTQSPSSLSASVGDRVTITCKASRNVGNSVGWYQQKPGKAPKLLIYSASYRYSGVPSRFSGSGSGTDFTLTISSLQPEDFATYYCQQYNRYPLTFGQGTKVEIK
notes: VH of h5E12scFv: CDRs of m5E12 grafted onto the human heavy chain GenBank AMK70123.1; (Gly4Ser)3 linker; the format VH-(Gly4Ser)3-VL is told for m5E12scFv, of which this is the humanized form; VL of h5E12scFv: CDRs of m5E12 grafted onto the human light chain GenBank APZ85158.1; Cloned in pET-27b with the pelB signal peptide; isolated from the periplasm; source: E. coli BL21 (DE3), periplasm, …
Kd [1]: 171 nM | koff [1]: 0.00108 s⁻¹

B2: h5E12scFv-bm, humanized 5E12 scFv by CDR grafting with back mutation (scFv, V domains shown)
VH: B1 VH with Q1E, R38K, M48I, R67K, V68A, R72V, V79A, M81L, A92S
VL: B1 VL with M4I, P8T, L46I, P59H, T85E, Y87F, Q100E
notes: (Gly4Ser)3 linker; the format VH-(Gly4Ser)3-VL is told for m5E12scFv, of which this is a humanized form; Cloned in pET-27b with the pelB signal peptide; isolated from the periplasm; source: E. coli BL21 (DE3), periplasm, purified (Ni-NTA, Superdex 75 SEC)
koff [1]: 0.01 s⁻¹
